Experimental data from patent US20260091080A1 (CELOSIA THERAPEUTICS, published 2026).

Legend:
FOXO1 = FOXO1 (UniProt Q12778 1-655, limits assumed); experiment: co-precipitation with expressed Fx
[1] = molecular target: YES-associated protein (YAP) (UniProt P46937 1-504); experiment: co-precipitation with expressed Fx
[2] = molecular target: endogenous TDP-43 of murine N2a cells and mouse brain (mouse, UniProt Q921F2 1-414); experiment: co-immunoprecipitation from N2a cells and mouse brain
Sequence of endogenous TDP-43 of murine N2a cells and mouse brain (Q921F2 whole entry): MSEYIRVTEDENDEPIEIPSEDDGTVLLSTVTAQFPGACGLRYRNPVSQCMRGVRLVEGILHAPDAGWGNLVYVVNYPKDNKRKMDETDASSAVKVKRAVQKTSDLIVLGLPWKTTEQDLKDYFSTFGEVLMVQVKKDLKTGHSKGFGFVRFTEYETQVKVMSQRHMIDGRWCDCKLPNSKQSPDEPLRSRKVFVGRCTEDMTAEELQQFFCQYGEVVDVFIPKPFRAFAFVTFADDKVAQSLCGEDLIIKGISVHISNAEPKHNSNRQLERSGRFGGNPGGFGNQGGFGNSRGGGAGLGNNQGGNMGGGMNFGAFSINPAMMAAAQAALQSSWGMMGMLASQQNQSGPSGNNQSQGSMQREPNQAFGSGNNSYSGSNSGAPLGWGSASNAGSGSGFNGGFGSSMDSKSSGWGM

Sequence of YES-associated protein (YAP) (P46937 whole entry): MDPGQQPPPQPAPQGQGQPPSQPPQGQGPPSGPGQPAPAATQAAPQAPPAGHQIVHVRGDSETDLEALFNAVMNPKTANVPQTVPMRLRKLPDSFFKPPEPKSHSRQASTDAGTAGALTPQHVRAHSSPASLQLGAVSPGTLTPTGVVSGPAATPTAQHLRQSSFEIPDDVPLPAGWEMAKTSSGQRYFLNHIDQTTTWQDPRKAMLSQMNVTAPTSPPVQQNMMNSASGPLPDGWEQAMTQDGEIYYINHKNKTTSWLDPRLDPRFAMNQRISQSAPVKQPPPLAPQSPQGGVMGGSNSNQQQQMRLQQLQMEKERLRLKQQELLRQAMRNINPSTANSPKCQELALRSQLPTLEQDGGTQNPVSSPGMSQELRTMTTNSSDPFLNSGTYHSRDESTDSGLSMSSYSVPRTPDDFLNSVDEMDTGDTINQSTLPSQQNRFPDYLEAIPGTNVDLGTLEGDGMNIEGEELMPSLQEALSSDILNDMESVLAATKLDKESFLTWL
Sequence of FOXO1 (Q12778 whole entry): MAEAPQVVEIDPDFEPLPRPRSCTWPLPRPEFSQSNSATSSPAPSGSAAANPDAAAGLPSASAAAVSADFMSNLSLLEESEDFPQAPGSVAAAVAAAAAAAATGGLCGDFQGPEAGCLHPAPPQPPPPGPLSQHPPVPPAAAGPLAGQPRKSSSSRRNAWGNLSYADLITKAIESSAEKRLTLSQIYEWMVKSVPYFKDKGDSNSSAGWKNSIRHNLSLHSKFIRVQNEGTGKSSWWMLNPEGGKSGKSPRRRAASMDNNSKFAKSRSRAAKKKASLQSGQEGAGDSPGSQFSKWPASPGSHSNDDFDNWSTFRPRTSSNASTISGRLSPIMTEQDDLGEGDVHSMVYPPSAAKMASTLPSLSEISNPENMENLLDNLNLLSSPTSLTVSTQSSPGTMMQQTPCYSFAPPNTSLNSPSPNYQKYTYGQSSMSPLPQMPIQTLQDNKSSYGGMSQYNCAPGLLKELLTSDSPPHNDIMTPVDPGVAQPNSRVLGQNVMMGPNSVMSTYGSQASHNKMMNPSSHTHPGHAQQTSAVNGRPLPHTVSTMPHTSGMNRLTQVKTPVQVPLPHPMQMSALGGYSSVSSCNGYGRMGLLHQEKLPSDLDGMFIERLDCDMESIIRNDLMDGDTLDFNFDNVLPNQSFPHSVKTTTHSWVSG

Row | Binder | binding result (FOXO1) | binding result [1] | binding result [2]
1 | GDDRKQTIDNSQGAYQEAFDISKKEMQPTH (not shown: V5 tag) [14-3-3θ-Fx-V5 (α-helix 6 (αF) of 14-3-3θ alone)] | no binding | no binding | 
2 | endogenous 14-3-3θ of murine N2a cells and mouse brain (other, UniProt P68254 1-245, looked up) MEKTELIQKAKLAEQAERYDDMATCMKAVTEQGAELSNEERNLLSVAYKNVVGGRRSAWRVISSIEQKTDTSDKKLQLIKDYREKVESELRSICTTVLELLDKYLIANATNPESKVFYLKMKGDYFRYLAEVACGDDRKQTIENSQGAYQEAFDISKKEMQPTHPIRLGLALNFSVFYYEILNNPELACTLAKTAFDEAIAELDTLNEDSYKDSTLIMQLLRDNLTLWTSDSAGEECDAAEGAEN |  |  | binds
